Measurements as given in US5906819, “Rho target protein Rho-kinase” (Kirin Beer Kabushiki Kaisha, dated 1999).

Tests used:
[1] = target: GST (Schistosoma japonicum (Blood fluke), UniProt P08515 = GST); assay: GST-small G-protein glutathione-Sepharose affinity column, SDS-PAGE and silver staining
[2] = target: GTPγS·GST-Rac1 (Homo sapiens (Human), UniProt P63000); assay: GST-small G-protein glutathione-Sepharose affinity column
[3] = target: GTPγS·GST-H-Ras (Homo sapiens (Human), UniProt P01112); assay: as above

B1: bovine Rho-kinase (enzyme)
chain: MSRPPPTGKMPGAPEAVSGDGAGASRQRKLEALIRDPRSPINVESLLDGLNPLVLDLDFPALRKNKNIDNFLNRYEKIVKKIRGLQMKAEDYDVVKVIGRGAFGEVQLVRHKASQKVYAMKLLSKFEMIKRSDSAFFWEERDIMAFANSPWVVQLFCAFQDDKYLYMVMEYMPGGDLVNLMSNYDVPEKWAKFYTAEVVLALDAIHSMGLIHRDVKPDNMLLDKHGHLKLADFGTCMKMDETGMVHCDTAVGTPDYISPEVLKSQGGDGYYGRECDWWSVGVFLFEMLVGDTPFYADSLVGTYSKIMDHKNSLCFPEDAEISKHAKNLICAFLTDREVRLGRNGVEEIKQHPFFKNDQWNWDNIRETAAPVVPELSSDIDSSNFDDIEDDKGDVETFPIPKAFVGNQLPFIGFTYYRENLLLSDSPSCKENDSIQSRKNEESQEIQKKLYTLEEHLSTEIQAKEELEQKCKSVNTRLEKVAKELEEEITLRKNVESTLRQLEREKALLQHKNAEYQRKADHEADKKRNLENDVNSLKDQLEDLKKRNQNSQISTEKVNQLQRQLDETNALLRTESDTAARLRKTQAESSKQIQQLESNNRDLQDKNCLLETAKLKLEKEFINLQSVLESERRDRTHGSEIINDLQGRISGLEEDVKNGKILLAKVELEKRQLQERFTDLEKEKNNMEIDMTYQLKVIQQSLEQEETEHKATKARLADKNKIYESIEEAKSEAMKEMEKKLSEERTLKQKVENLLLEAEKRCSILDCDLKQSQQKINELLKQKDVLNEDVRNLTLKIEQETQKRCLTQNDLKMQTQQVNTLKMSEKQLKQENNHLLEMKMSLEKQNAELRKERQDADGQMKELQDQLEAEQYFSTLYKTQVRELKEECEEKTKLCKELQQKKQELQDERDSLAAQLEITLTKADSEQLARSIAEEQYSDLEKEKIMKELEIKEMMARHKQELTEKDATIASLEETNRTLTSDVANLANEKEELNNKLKEAQEQLSRLKDEEISAAAIKAQFEKQLLTERTLKTQAVNKLAEIMNRKEPVKRGNDTDVRRKEKENRKLHMELKSEREKLTQQMIKYQKELNEMQAQIAEESQIRIELQMTLDSKDSDIEQLRSQLQALHIGLDSSSIGSGPGDTEADDGFPESRLEGWLSLPVRNNTKKFGWVKKYVIVSSKKILFYDSEQDKEQSNPYMVLDIDKLFHVRPVTQTDVYRADAKEIPRIFQILYANEGESKKEQEFPVEPVGEKSNYICHKGHEFIPTLYHFPTNCEACMKPLWHMFKPPPALECRRCHIKCHKDHMDKKEEIIAPCKVYYDISSAKNLLLLANSTEEQQKWVSRLVKKIPKKPPAPDPFARSSPRTSMKIQQNQSIRRPSRQLAPNKPS
B1: no binding (tested: 24 nmol on the column) [1]; no binding [2]; no binding [3].
